Where “and” joins values, the source holds several entries; their conditions need not be identical. Identical values can stand only once.
Target: the molecule itself
Test: native MS

B1: C. elegans MORC-1 (8x-His-MBP-CeMORC) (natural protein, UniProt Q23243 1-845, looked up)
chain: MPNDTNGDDYKKLEKASVNLNFLKSNSHTHIGPLSAIAELVDNAYDADARDLHIDFLDINNEQFLELRDDGLGMAREEALHAITFGHSAKCSYKIGRYGNGLKSGAFHLGRELLLVTKKDGIITALLISHRFHEDQGLTNSVFVPCPSFDLDGIPICQTESEKDRFNLEMKIIGKYAPLGSRTLAELADKITGSTGTIIIIGNLRRSVTGELAINTTKDPTDIIVDSGEENKPWRESLRKYLEFIYLKPRMRIHVRGEQVLPKRISENWIAKKQQLISGDQFTAAYNKILDEKNETVKKCEEEKALVMSEIGGTNYTSVRREDRANQKSLRLRVDTSQKNLDSAIADRDAFKKEGKSEKSFHLNMGIETKDRSNNGIHFYINNRLILWGNKEAKFFSKFANSIGISMFLSLDYSLFSAAQNKQGFDHVKDFQVLVRKCNDALRDYSMYLEKSWIPTHLKNTWNVRIYEGDDVWAVLWGVYGYNNTTSTTCVQTHDSARDQVMWTTCGIWKLCQMCRTWIKASRPNEIVGSNDDFFCCENVNHHGCRTIVAEDNDFSKLPEKYDHILPQKRLTNSAPSSSDSQNSIRSASSCSSSSRLLNVAKIESHERIHSSTGGHRLGESFSTTSVKMEPIPNNAHDSHIAEVQRRHSTGRAISPAVSEISRRAGTAPSSQLDMIMGEESDESQEALTIRAPRQRAKRPIERVSRRNRRDQSDDDSDSENEERYATAPKKSKVKGKAVVRAPKMTREKWLEEMLNQFLTAHGEQPLPKNGQRDFDPTNIVEQTSRRNFKNNQRIVDAQQAIMRQIGSVLDHLKRNPTHNFKIPASGTVEEKLKNIEHQIKGKKK
With B1 the “stoichiometry N” value was 2 and 3 and 4.
